Patent WO2008118324A2 (dated 2008)

T1: human UPK-Ib expressed on the surface of cells (human, UniProt O75841 1-260)
T1 construct: whole, on cells; also called uroplakin Ib; UPK-1
T1 sequence (looked up): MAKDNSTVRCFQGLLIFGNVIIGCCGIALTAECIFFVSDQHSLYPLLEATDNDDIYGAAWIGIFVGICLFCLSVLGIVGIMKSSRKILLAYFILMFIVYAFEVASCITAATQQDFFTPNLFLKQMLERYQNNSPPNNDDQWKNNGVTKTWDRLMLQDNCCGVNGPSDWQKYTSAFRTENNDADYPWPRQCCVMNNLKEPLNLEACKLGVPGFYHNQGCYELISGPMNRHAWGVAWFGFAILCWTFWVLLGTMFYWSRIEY


Assays:
[1] = target: T1, human UPK-Ib expressed on the surface …; assay: flow cytometry, antibody at 2 ug/mL on A549 and EKVX cells
[2] = target: T1, human UPK-Ib expressed on the surface …; assay: flow cytometry on a transitional cell carcinoma line

binding result [1] | binding result [2] | Binder
binds | – | chimeric 1G9 containing the enhancing Fc mutant (antibody, V domains shown, domain: C-kappa segment; They are not tied to this construct; also called chlG9-mut; chlG9 Fc mut; not shown: human IgG1 constant region carrying the 'enhancing Fc mutant') VH: QVQLQQPGAELVRPGSSVKVSCKASGYTFSSYWMHWVKQRPIQGLEWIGNIDPSDSETHYNQKFKDKATLTVDKSSSTAYMQLSSLTSEDSAVYYCARSGAGTGPWLAYWGQGTLVTVSA VL: DIVMTQSPSSLTVTAGEKVTMTCKSSQSLLNSGNQKNYLTWYQQKPGQPPNPLIYWASTRESGVPDRFTGSGSGTDFTLTISSVQAEDLAVYYCQNDYSYPFTFGSGTKLEIKR
– | binds | 1G9 monoclonal antibody (murine) (antibody, V domains shown, Mouse (BALB/c) hybridoma antibody, tested as culture supernatant and detected with anti-mouse IgG; also called 1G9 MAb) VH: QVQLQQPGAELVRPGSSVKVSCKASGYTFSSYWMHWVKQRPIQGLEWIGNIDPSDSETHYNQKFKDKATLTVDKSSSTAYMQLSSLTSEDSAVYYCARSGAGTGPWLAYWGQGTLVTVSA VL: DIVMTQSPSSLTVTAGEKVTMTCKSSQSLLNSGNQKNYLTWYQQKPGQPPNPLIYWASTRESGVPDRFTGSGSGTDFTLTISSVQAEDLAVYYCQNDYSYPFTFGSGTKLEIK
– | binds | 5H9 monoclonal antibody (murine) (antibody, V domains shown, Mouse (BALB/c) hybridoma antibody, tested as culture supernatant and detected with anti-mouse IgG; also called 5H9 MAb; murine 5H9) VH: EVQLVESGGGLVQPKGSLKLSCAASGFSFNTYAMNWVRQAPGKGLEWVARIRSKSNNYATYYADSVKDRFTISRDDSESMLYLQMNNLKTEDTAMYYCVRQGDGYYVGWFAYWGQGTLVTVSA VL: DIQMTQTTSSLSASLGDRVTISCRASQDISNYLNWYQQKPDGTVKLLIYYTSRLHSGVPSRFSGSGSGTDYSLTISNLEQEDIATYFCQQGNTLPFTFGSGTKLEIK
